Measured values taken from patent publication US20030148956A1 (PROCTER AND GAMBLE, published 2003).
Ends that are not written are not given here.

T1: corticotropin releasing factor 2 receptor
T1 sequence (Q13324 whole entry, species assumed, looked up): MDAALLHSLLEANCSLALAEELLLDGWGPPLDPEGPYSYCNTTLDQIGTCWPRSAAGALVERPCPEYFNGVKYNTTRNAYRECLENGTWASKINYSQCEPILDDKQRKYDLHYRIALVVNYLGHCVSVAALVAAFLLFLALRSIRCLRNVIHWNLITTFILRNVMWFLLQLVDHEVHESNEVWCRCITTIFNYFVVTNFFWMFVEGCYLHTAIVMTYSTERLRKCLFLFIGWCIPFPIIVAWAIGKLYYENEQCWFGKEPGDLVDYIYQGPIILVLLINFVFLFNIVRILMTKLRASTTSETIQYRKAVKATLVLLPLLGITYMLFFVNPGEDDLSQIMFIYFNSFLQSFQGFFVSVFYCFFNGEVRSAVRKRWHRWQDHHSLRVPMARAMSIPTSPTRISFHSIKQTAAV


Key:
[1] = target: corticotropin releasing factor 1 receptor; experiment: cell-based or functional assay
[2] = target: T1, corticotropin releasing factor 2 …; experiment: cell-based or functional assay

| CRF1R EC50 [1] [nM] | CRF1R Emax % [1] [%] | CRF2R EC50 [2] [nM] | CRF2R Emax % [2] [%] | Binder |
| --- | --- | --- | --- | --- |
| 27.4 | 98 | > 100 | 33 | SQEPPISLDLTFHLLREVLEMTKADQLAQQAHSNRKLLDIA (ends and bridges not checked) [ovine corticotropin releasing factor fragment] |
| 9 | 100 | 3.52 | 100 | DNPSLSIDLTFHLLRTLLELARTQSQRERAEQNRIIFDSV (ends and bridges not checked) [human urocortin I fragment] |
| > 1000 | 10.2 | > 100 | 60 | TKFTLSLDVPTNIMNLLFNIAKAKNLRAQAAANAHLMAQI (ends and bridges not checked) [human urocortin III fragment] |
| 19.9 | 87 | 49.2 | 100 | SEEPPISLDLTFHLLREVLEMARAEQLAQQAHSNRKLMEII (ends and bridges not checked) [human corticotropin releasing factor fragment] |
| > 100 | 9 | 3.64 | 98 | IVLSLDVPIGLLQILLEQARARAAREQATTNARILARV (ends and bridges not checked) [human urocortin II fragment] |
